What was measured:
EMRSA-15 [1] = test: MIC by broth microdilution (antibacterial susceptibility test of EMRSA-15); assay type: cell-based, methicillin-resistant Staphylococcus aureus (MRSA); conditions: Staphylococcus aureus, read-out: MIC of EMRSA-15 to oxacillin
Procedure: Antibacterial susceptibility test of EMRSA-15 was carried out according to NCCLS guidelines for broth micro broth dilution with modifications. EMRSA-15 was streaked from a −70° C. glycerol stock to Columbia base agar (Oxoid) supplemented with 5% horse blood (Oxoid) and 6 μg/ml oxacillin (Sigma), and incubated for 18-20 h at 33° C. Two to four bacterial colonies were inoculated into 3 ml Mueller Hinton broth (MHB, Oxoid) supplemented with 6 μg/ml oxacillin (Sigma) and incubated for 18-20 h at 33° C. with shaking at 180 rpm. Cultures were adjusted to OD625 0.08-0.1 (equivalent to 0.5 Mcfarland or 1-2×10^8 cfu/ml) with MHB and further diluted 1/50 to achieve a final concentration of 5×10^5 cfu per well. Susceptibility to either oxacillin, PHMB or peptides was tested by adding oxacillin (0-1024 μg/ml in MHB), PHMB (0-512 μg/ml in 1×PBS) or peptide (0-512 μg/ml in 1×PBS) to 75 μl of culture in a final volume of 150 μl per well. Plates were incubated at 33° C. for 24 h and growth was scored visually.

EMRSA-15 [2] = test: Checkerboard synergy of PHMB and MecA peptides with oxacillin (FIC index); assay type: cell-based, methicillin-resistant Staphylococcus aureus (MRSA); conditions: Staphylococcus aureus
Procedure: (§1) Synergy of PHMB and peptides (MecA3136, MecA3140) were tested by a standard checkerboard method of two-fold dilutions. PHMB and peptide were mixed at appropriate concentrations to a final volume of 30 μl in each well of a 96 well plate, and the mixtures were incubated at 20-22° C. for 30 mins before the addition of culture and oxacillin to a final volume of 150 μl. Plates were incubated and scored as above. FIC indices were calculated for wells without growth and containing the lowest combination of PHMB and peptide as follows: (A/MICA)+(B/MICB)=FICA+FICB=FIC index, where A is concentration of PHMB in combination, MICA is MIC of PHMB alone, B is concentration of peptide in combination, MICB is MIC of peptide alone. A control plate without oxacillin, and control wells of culture with increasing oxcaillin but without PHMB and peptide were included.

EMRSA-15 [3] = test: Oxacillin sensitization: growth of EMRSA-15 with peptide, oxacillin and fixed PHMB; assay type: cell-based, methicillin-resistant Staphylococcus aureus (MRSA); design: key: 1 is growth; 0 is no growth; conditions: MecA3136 0 uM, PHMB 0.25 μg/ml
Procedure: as §1, with “included. […]” for “included.”

EMRSA-15 [4] = test: as above; assay type: cell-based, methicillin-resistant Staphylococcus aureus (MRSA); design: key: 1 indicates growth; 0 indicates no growth; conditions: PHMB 1 ug/ml
Procedure: as §1, with “included. […]” for “included.”

EMRSA-15 [5] = test: as above; assay type: cell-based, methicillin-resistant Staphylococcus aureus (MRSA)
Procedure: as §1, with “included. […]” for “included.”

[6] = biological target: T1, MecA (Penicillin binding protein 2A, PBP2A) (Staphylococcus aureus, UniProt P07944); test: In vitro binding to MecA and block of oxacillin binding; design: species or system methicillin-resistant Staphylococcus aureus (MRSA)
T1 construct: The primers were designed so that the first 23 amino acids at the N terminus were deleted; GST (N, cleaved yes); primer-encoded linker LEVLFQGP-M (my own translation of the forward primer); made in house; host or cells: Escherichia coli BL21(DE3)
Procedure: For inhibitor screening recombinantly expressed and purified PBP2a is immobilised using an affinity tag to the surface of the wells of a microtiter plate. The wells are then incubated with serially diluted solutions of the peptide aptamer or indeed any possible inhibitor of PBP2a, plus a PBP2a substrate, such as BIO-AMP (Bobba et al. 2011) at a fixed concentration in PBS. After approximately 15 min, the binding reactions are stopped, and the plates were developed as described (Bobba et al. 2011). The background levels of fluorescence from control reactions are subtracted and then the inhibitor binding data are calculated and plotted to determine the Ki^app of binding.

T1 sequence (P07944 24-670): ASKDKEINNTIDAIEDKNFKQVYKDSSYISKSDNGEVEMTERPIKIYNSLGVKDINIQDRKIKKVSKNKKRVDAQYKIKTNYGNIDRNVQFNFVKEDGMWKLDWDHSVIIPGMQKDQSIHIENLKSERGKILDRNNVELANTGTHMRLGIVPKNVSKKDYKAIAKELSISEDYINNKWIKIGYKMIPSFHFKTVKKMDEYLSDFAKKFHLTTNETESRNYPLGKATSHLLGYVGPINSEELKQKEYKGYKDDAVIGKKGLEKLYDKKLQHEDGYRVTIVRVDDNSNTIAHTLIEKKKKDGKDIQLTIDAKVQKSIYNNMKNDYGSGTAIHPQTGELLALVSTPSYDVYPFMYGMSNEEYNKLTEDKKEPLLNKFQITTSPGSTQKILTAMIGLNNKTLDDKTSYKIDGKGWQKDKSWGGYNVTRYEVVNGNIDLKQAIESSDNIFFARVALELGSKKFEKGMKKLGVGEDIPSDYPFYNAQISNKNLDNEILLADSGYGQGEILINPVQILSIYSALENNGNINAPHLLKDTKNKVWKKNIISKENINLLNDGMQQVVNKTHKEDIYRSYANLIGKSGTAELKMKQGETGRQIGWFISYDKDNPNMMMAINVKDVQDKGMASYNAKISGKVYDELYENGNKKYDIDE

Molecule: Cc1onc(-c2ccccc2)c1C(=O)N[C@@H]1C(=O)N2[C@@H]1SC(C)(C)[C@@H]2C(=O)O [Oxacillin, oxacillin, reference compound]
- MIC (EMRSA-15 [1]; MHB + 0.25 μg/ml PHMB): 256 µg/mL
- MIC (EMRSA-15 [1]; MHB + 176 μg/ml MecA3136): 128 µg/mL
- MIC (EMRSA-15 [1]; MHB + 176 μg/ml MecA3140): 128 µg/mL
- MIC (EMRSA-15 [1]; MHB): 128 µg/mL
- MIC (EMRSA-15 [2]; oxacillin alone, checkerboard set of experiments): 256 µg/mL
- MIC (EMRSA-15 [2]; with PHMB and MecA3136 at certain concentrations): 516 µg/mL
- Growth of EMRSA-15 (EMRSA-15 [3]; oxacillin 16 ug/ml): 1
- Growth of EMRSA-15 (EMRSA-15 [3]; oxacillin 32 ug/ml): 1
- Growth of EMRSA-15 (EMRSA-15 [3]; oxacillin 64 ug/ml): 1
- Growth of EMRSA-15 (EMRSA-15 [3]; oxacillin 128 ug/ml): 1
- Growth of EMRSA-15 (EMRSA-15 [3]; oxacillin 256 ug/ml): 0
- Growth of EMRSA-15 (EMRSA-15 [4]; E1 0 ug/ml, oxacillin 8 ug/ml): 1
- Growth of EMRSA-15 (EMRSA-15 [4]; E1 0 ug/ml, oxacillin 16 ug/ml): 1
- Growth of EMRSA-15 (EMRSA-15 [4]; E1 0 ug/ml, oxacillin 32 ug/ml): 1
- Growth of EMRSA-15 (EMRSA-15 [4]; E1 0 ug/ml, oxacillin 64 ug/ml): 1
- Growth of EMRSA-15 (EMRSA-15 [4]; E1 0 ug/ml, oxacillin 128 ug/ml): 0
- Growth of EMRSA-15 (EMRSA-15 [4]; HIW 0 ug/ml, oxacillin 16 ug/ml): 1
- Growth of EMRSA-15 (EMRSA-15 [4]; HIW 0 ug/ml, oxacillin 32 ug/ml): 1
- Growth of EMRSA-15 (EMRSA-15 [4]; HIW 0 ug/ml, oxacillin 64 ug/ml): 0

B1: E1: MecA (PBP2A) binding peptide aptamer, Sequence ID No. 4; different scaffold to MecA3136 and MecA3140 (protein)
chain: ASAATGVRAVPGNENSLEIEELARFAVDEHNKKENALLEFVRVVKAKEQHWKAKLGHDTMYYLTLEAKDGGKKKLYEAKVWVKLIPTKDFHLNFKELQEFKPVGDAAAAHHHHHH
modifications: Peptide sequence E1
notes: different scaffold to MecA3136 and MecA3140
- effect during the assay (EMRSA-15 [5]; oxacillin and 1 ug/ml PHMB): Sequence E1 is a different scaffold to MecA3136 and MecA3140, but in Table 11 shows a modest effect during the assay.
- enhancement of oxacillin activity (EMRSA-15 [5]; with PHMB): Clear enhancement of oxacillin activity
- binding to MecA and block of oxacillin binding [6]: bind to MecA and block oxycillin binding to MecA
- Growth of EMRSA-15 (EMRSA-15 [4]; E1 5 ug/ml, oxacillin 0 ug/ml): 1
- Growth of EMRSA-15 (EMRSA-15 [4]; E1 5 ug/ml, oxacillin 8 ug/ml): 1
- Growth of EMRSA-15 (EMRSA-15 [4]; E1 5 ug/ml, oxacillin 16 ug/ml): 1
- Growth of EMRSA-15 (EMRSA-15 [4]; E1 5 ug/ml, oxacillin 32 ug/ml): 1
- Growth of EMRSA-15 (EMRSA-15 [4]; E1 5 ug/ml, oxacillin 64 ug/ml): 0
- Growth of EMRSA-15 (EMRSA-15 [4]; E1 5 ug/ml, oxacillin 128 ug/ml): 0
- Growth of EMRSA-15 (EMRSA-15 [4]; E1 10 ug/ml, oxacillin 0 ug/ml): 1
- Growth of EMRSA-15 (EMRSA-15 [4]; E1 10 ug/ml, oxacillin 8 ug/ml): 1
- Growth of EMRSA-15 (EMRSA-15 [4]; E1 10 ug/ml, oxacillin 16 ug/ml): 1
- Growth of EMRSA-15 (EMRSA-15 [4]; E1 10 ug/ml, oxacillin 32 ug/ml): 1
- Growth of EMRSA-15 (EMRSA-15 [4]; E1 10 ug/ml, oxacillin 64 ug/ml): 0
- Growth of EMRSA-15 (EMRSA-15 [4]; E1 10 ug/ml, oxacillin 128 ug/ml): 0
- Growth of EMRSA-15 (EMRSA-15 [4]; E1 20 ug/ml, oxacillin 0 ug/ml): 1
- Growth of EMRSA-15 (EMRSA-15 [4]; E1 20 ug/ml, oxacillin 8 ug/ml): 1
- Growth of EMRSA-15 (EMRSA-15 [4]; E1 20 ug/ml, oxacillin 16 ug/ml): 1
- Growth of EMRSA-15 (EMRSA-15 [4]; E1 20 ug/ml, oxacillin 32 ug/ml): 0
- Growth of EMRSA-15 (EMRSA-15 [4]; E1 20 ug/ml, oxacillin 64 ug/ml): 0
- Growth of EMRSA-15 (EMRSA-15 [4]; E1 20 ug/ml, oxacillin 128 ug/ml): 0
